In patent US20260274955A1 (JANUX THERAPEUTICS, published 2026):

Molecular target: T1, anti-CD28 Fab (SEQ ID NOs: 202, 203)
T1 construct: biotinylated and captured on neutravidin coated plates in the phage ELISA
Assay: phage ELISA on captured Fab;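 note: ELISA with clonal phage supernatants added to wells preincubated with CD28 antigen or with blocking buffer only, bound phage detected by HRP-conjugated anti-M13 antibody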
T1 sequence (VH, as listed by the source, chain 1 of 2): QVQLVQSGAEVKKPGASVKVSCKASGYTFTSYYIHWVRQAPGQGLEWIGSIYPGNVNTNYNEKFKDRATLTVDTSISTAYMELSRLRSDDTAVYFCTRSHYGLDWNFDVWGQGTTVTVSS
T1 sequence (VL, as listed by the source, chain 2 of 2): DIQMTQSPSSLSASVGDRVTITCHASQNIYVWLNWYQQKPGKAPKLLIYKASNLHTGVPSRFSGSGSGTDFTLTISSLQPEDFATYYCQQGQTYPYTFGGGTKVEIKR
Method: (§1) Clonal phage were harvested as crude supernatants and screened via standard ELISAs. […] Prior to the addition of clonal phage, wells were incubated with blocking buffer and CD28 antigen or blocking buffer alone. Without washing or aspirating, clonal phage supernatants were then added to the wells and incubated for a short time. Wells were then washed followed by detection of bound phage using a horse radish conjugated anti-M13 antibody.

Row | Binder | Anti-CD28 Fab (SEQ ID NOs: 202, 203) signal
1 | YCEGHAVEYMAKCL (on phage, pIII fusion) [Phage-593] | 1.44
2 | YCQGHIEPYLAKCL (on phage, pIII fusion) [Phage-586] | 1.46
3 | YCAGHLPQYIQKCL (on phage, pIII fusion) [Phage-591] | 1.44
4 | YCEGHIMQYMAQCL (on phage, pIII fusion) [Phage-570] | 1.49
5 | YCDGHLPEYMNQCL (on phage, pIII fusion) [Phage-597] | 1.44
6 | YCDGHSEQYIAKCL (on phage, pIII fusion) [Phage-572] | 1.49
7 | YCDGHNFQYMEKCL (on phage, pIII fusion) [Phage-598] | 1.44
8 | YCDGHLPIYQAKCL (on phage, pIII fusion) [Phage-571] | 1.49
9 | YCEGHLPQYMTKCI (on phage, pIII fusion) [Phage-590] | 1.44
10 | YCEGHLAIYQKKCL (on phage, pIII fusion) [Phage-592] | 1.44
11 | YCDGHAEEYMAKCL (on phage, pIII fusion) [Phage-588] | 1.45
12 | YCDGHLAIYMWKCL (on phage, pIII fusion) [Phage-587] | 1.45
13 | YCEGHSQEYMAKCL (on phage, pIII fusion) [Phage-596] | 1.44

Molecular target: anti-CD28 Fab (SEQ ID NOs: 202, 203)
Assay: phage ELISA, Fab on plate;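 note: ELISA of crude clonal phage supernatants on the plate, wells preloaded with CD28 antigen or only blocking buffer, captured phage read out via HRP-linked anti-M13 antibody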
Target sequence in this assay (VH, as listed by the source, chain 1 of 2): as the sequence (VH, as listed by the source, chain 1 of 2) above
Target sequence in this assay (VL, as listed by the source, chain 2 of 2): as the sequence (VL, as listed by the source, chain 2 of 2) above
Method: After panning, phage infected bacteria were plated out and colonies picked into 96 well blocks. Clonal phage was then amplified and separated from bacterial cells via centrifugation.
Clonal phage were harvested as crude supernatants and screened via standard ELISAs. […] Prior to the addition of clonal phage, wells were incubated with blocking buffer and CD28 antigen or blocking buffer alone. Without washing or aspirating, clonal phage supernatants were then added to the wells and incubated for a short time. Wells were then washed followed by detection of bound phage using a horse radish conjugated anti-M13 antibody. Clonal phage of interest were then sent for sequence analysis.

Row | Binder | Anti-CD28 Fab signal
14 | LCSAGFLFQWSTCL [Phage-1133] | 1.41
15 | PCSAGVTYAWLYCV [Phage-1140] | 1.41
16 | TCSAGAHYPWPICL [Phage-1131] | 1.41
17 | SCTAGFRIHWPMCF [Phage-1212] | 1.06
18 | TCAAGAHYEWPQCF [Phage-1206] | 1.08
19 | TCSAGATYTWPVCF [Phage-1201] | 1.13
20 | TCSAGATYSWPLCF [Phage-1203] | 1.12
21 | TCAAGATYSWPSCF [Phage-1204] | 1.1
22 | PCAAGAMWPWPVCL [Phage-1136] | 1.41
23 | LCAAGFMYEWPLCF [Phage-1143] | 1.4
24 | LCDQFFHYNWPACL [Phage-1215] | 1.04
25 | SCSAGASLQLSQCF [Phage-1129] | 1.41
26 | MCTAGFSFNWPECL [Phage-1214] | 1.05
27 | TCAAGAQFAWPLCL [Phage-1132] | 1.41
28 | TCSAGASYSWPYCM [Phage-1217] | 1
29 | MCAAGAAWAWPLCL [Phage-1141] | 1.4
30 | TCAAGASYPWPLCV [Phage-1142] | 1.4
31 | RCAAGFHYSWPNCF [Phage-1134] | 1.41

Row | Binder | Anti-CD28 Fab signal
32 | SCTAVFSYALSPCF [Phage-1219] | 0.99
33 | SCAAGSTWAWPACL [Phage-1210] | 1.07
34 | TCSAGAHYEWPKCL [Phage-1202] | 1.12
35 | SCAAVFSFNWPECF [Phage-1216] | 1.01
36 | SCAAGFHYEWPQCF [Phage-1211] | 1.06
37 | WCSEVFSYPWPACL [Phage-1218] | 0.99
38 | RCSFRFITLAEACV [Phage-1130] | 1.41
39 | GCAAGASYPWPACL [Phage-1135] | 1.41
40 | QCAAGATYPWPVCL [Phage-1200] | 1.13
41 | TCAAGATYNWPWCF [Phage-1207] | 1.07
42 | SCAAGAAYAWPWCL [Phage-1213] | 1.05
43 | TCAAGANYAWPVCL [Phage-1205] | 1.09
44 | TCAAGATWTWPTCM [Phage-1208] | 1.07
45 | LCAAGAHYSWPACF [Phage-1139] | 1.41
46 | TCSAGATYSWPACL [Phage-1137] | 1.41
47 | PCAAGAQWSWPMCL [Phage-1209] | 1.07
48 | TCAAGASWNWPACE [Phage-1138] | 1.41

Molecular target: T1, anti-CD28 Fab (SEQ ID NOs: 202, 203)
Assay: phage ELISA on captured Fab, wells pre-incubated with CD28 antigen (competitor);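 note: clonal phage ELISA with wells pretreated with CD28 plus blocking buffer before phage addition, bound phage detected by HRP-linked anti-M13 antibody, reference wells got blocking buffer only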
Method: as §1

Row | Binder | Anti-CD28 Fab signal in the presence of CD28
49 | YCEGHAVEYMAKCL (on phage, pIII fusion) [Phage-593] | 0.07
50 | YCQGHIEPYLAKCL (on phage, pIII fusion) [Phage-586] | 0.05
51 | YCAGHLPQYIQKCL (on phage, pIII fusion) [Phage-591] | 0.07
52 | YCEGHIMQYMAQCL (on phage, pIII fusion) [Phage-570] | 0.06
53 | YCDGHLPEYMNQCL (on phage, pIII fusion) [Phage-597] | 0.07
54 | YCDGHSEQYIAKCL (on phage, pIII fusion) [Phage-572] | 0.08
55 | YCDGHNFQYMEKCL (on phage, pIII fusion) [Phage-598] | 0.06
56 | YCDGHLPIYQAKCL (on phage, pIII fusion) [Phage-571] | 0.1
57 | YCEGHLPQYMTKCI (on phage, pIII fusion) [Phage-590] | 0.08
58 | YCEGHLAIYQKKCL (on phage, pIII fusion) [Phage-592] | 0.06
59 | YCDGHAEEYMAKCL (on phage, pIII fusion) [Phage-588] | 0.06
60 | YCDGHLAIYMWKCL (on phage, pIII fusion) [Phage-587] | 0.09
61 | YCEGHSQEYMAKCL (on phage, pIII fusion) [Phage-596] | 0.06

Molecular target: T2, anti-CD28 Fab (SEQ ID NOs: 202, 203)
T2 construct: biotinylated and captured on neutravidin coated plates in the phage ELISA
Assay: phage binding ELISA; Fab wells pre-incubated with CD28 antigen (competitor);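 note: clonal phage supernatants added to wells preincubated with CD28 antigen in blocking buffer versus blocking buffer alone, washed, bound phage read by HRP-conjugated anti-M13 antibody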
T2 sequence (VH, as listed by the source, chain 1 of 2): as the sequence (VH, as listed by the source, chain 1 of 2) above
T2 sequence (VL, as listed by the source, chain 2 of 2): as the sequence (VL, as listed by the source, chain 2 of 2) above
Method: as §1

Row | Binder | Anti-CD28 Fab signal in the presence of CD28
62 | YCAGHLPQYIAKCL [Phage-313] | 0.09
63 | YCDGHRPEYMEKCL [Phage-315] | 0.06
64 | YCDGHLKEYMAKCL [Phage-314] | 0.07
65 | YCDGHAIEYMAKCL [Phage-446] | 0.08
66 | YCDGHLSEYMFKCL [Phage-371] | 0.1
67 | YCAGHAPQYMEKCL [Phage-312] | 0.08

Molecular target: T2, anti-CD28 Fab (SEQ ID NOs: 202, 203)
Assay: phage binding ELISA; biotinylated Fab on neutravidin plate;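 note: clonal phage supernatants added to Fab wells pretreated with CD28 antigen or with blocking buffer only, bound phage read out via HRP-linked anti-M13 antibody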
Method: as §1

Row | Binder | Anti-CD28 Fab (SEQ ID NOs: 202, 203) signal
68 | YCAGHLPQYIAKCL [Phage-313] | 1.9
69 | YCDGHRPEYMEKCL [Phage-315] | 1.9
70 | YCDGHLKEYMAKCL [Phage-314] | 1.9
71 | YCDGHAIEYMAKCL [Phage-446] | 1.69
72 | YCDGHLSEYMFKCL [Phage-371] | 1.79
73 | YCAGHAPQYMEKCL [Phage-312] | 1.9
